The labels stand for the following.
B1: TPR 5TU (parent)
chain: GGAUCUUCUCGAUCUAACAAAAAAGACAAAUCUGCCACAAAGCUUGAGAGCAUCUUCGGAUGCAGAGGCGGCAGCCUUCGGUGGCGCGAUAGCGCCAACGUUCUCAACUAUGACACGCAAAACGCGUGCUCCGUUGAAUGGAGUUUAUCAUG

Variants at the floor of the assay were thinned out.

The variants in the data set derive from B1. The experiment in a line: polymerase ribozyme fitness, log enrichment relative to wild type (log ratio); higher = more active; in vitro selection for triplet polymerase activity. The gist of the method: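 One round of in vitro selection, in triplicate, was applied to PCR-built, transcribed mutant libraries of each subunit of a heterodimeric triplet polymerase ribozyme. The steps were annealing with a biotinylated primer, partner subunit and triplets, incubation frozen at −7 °C, gel excision of extended constructs, streptavidin-bead capture and RT-PCR. Fitness is the logarithm, base 2, of genotype enrichment over wild-type enrichment from inverse-variance-weighted replicate averages of Illumina-sequenced inputs and outputs, keeping genotypes with ≥10 input reads and ≥1 read per output.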
Take GGAUCUUCUCGAUCUAACAAAAAAGACAAAUCUGCCACAAAGCUUGAGGGCAUCUUCGGAUGCAGAGGCGGCAGCCUUCGGUGGCGCGAUAGCGCCAACGUUCUCAACUAUGACUCGCAAAACGCGUGCUCCGUUGAAUGGAGUUUAUCAUG: the “polymerase ribozyme fitness (log ratio)” value was -2.35. The value for GGAUCUUCUCGAUCUAACAAAAAAGACAAAUCUGCCACAAAGCUUGAGCGCAUCUUCGGAUGCAGAGGCGGCAGCCUUCGGUGGCGCGAUAGCGCUAACGUUCUCAACUAUGACACGCAAAACGCGUGCUCCGUUGAAUGGAGUUUAUCAUG was -3.23; that for GGAUCUUCUCGAUCUAACAAAAAAGACAAAUCUGCCACAAAGCUUGAGCGCAUCUUCGGAUGCAGAGGCGGCAGCCUUCGGUGGCGCGAUAGCGCCAACGUUCUCAACUAUGACACGCAAAACGCGUGCUCCGUUGAAUGGAGUUUAACAUG was at most -4.2; that for GGAUCUUCUCGAUCUAACAAAAAAGACAAAUCUGCCACAAAGCUUGAGCGCAUCUUCGGAUGCAGAGGCGGCAGCCUUCGGUGGCGUGAUAGCGCCAACGUUCUCAACUAUGACACGCAAAACGCGUGCUCCGUUGAAUGGAGUUUAUCAGG was at most -4.2. With GGAUCUUCUCGAUCUAACAAAAAAGACAAAUCUGCCACAAAGCUUGAGCGCAUCUUCGGAUGCAGAGGCGGCAGCCUUCGGUGGCGAGAUAGCGACAACGUUCUCAACUAUGACACGCAAAAAGCGUGCUCCGUUGAAUGGAGUUUAUCAUG the figure was at most -4.2. The value for GGAUCUUCUCGAUCUAACAAAAAAGACAAAUCUGCCACAAAGCUUGAGCCCAUCUUCGGAUGCAGAGGCGGCAGCCUCCGGUGGCGCGAUAGCGCCAACGUUCUCAACUAUGACACGCAAAACGCGUGCUCCGUUGAAUCGAGUUUAUCAUG was at most -4.2; that for GGAUCUUCUCGAUCUAACAAAAAAGACAAAUCUGCCACAAAGCUUGAGGGCAUCUUCGGAUGCAGAGGCGGCAGCCUUCGGUGGCGCGAUGUCGCCAACGUUCUCAACUAUGACACGCAAAACGCGUGCUCCGUUGAUUGGAGCUUAUCAUG was at most -4.2; that for GGAUCUUCUCGAUCUAACAAAAAAGACAAAUCUGCCACAAAGCUUGAGCGCAUCUUCGGAUGCAGAGGCGGCAGCCUUCGGUCGCGCGACAGCGCCAACGUUCUCAACUAUGACACGCAAAGCGCGUGCUCCGUUGAAUGGAGUUUAUCAUG was at most -4.2. With GGAUCUUCUCGAUCUAACAAAAAAGACAAAUCUGCCACAAAGCUUGAGCGCAUCUUCGGAUGCAGAGGCGGCAGCCUUCGGUGGCGCGAUAGCGCCAAUGUUCUCAACUAUGACACGCAAAACGCGUGCUCCGUUGAAUGGAGUUUAUCAUG, the “polymerase ribozyme fitness (log ratio)” value is at most -4.2. With GGAUCUUCUCGAUCUAACAAAAAAGACAAAUCUGCCACAAAGCUUGAGCGCAUCUUCGGAUGCAGAGGCGGCAGCCUUCGGUGGCGCGAUAGCGCCAAUGUGCUCAACAAUGACACGCAAAACGCGUGCUCCGUUGAAUGGAGUUUAUCAUG the figure was -2.46; with GGAUCUUCUCGAUCUAACAAAAAAGACAAAUCUGCCACAAAGCUUGAGCGCAUCUUCGGAUGCAGAGGCGGCAGCCUUCGGAGGUGCAAUAUCGCCAACGUUCUCAACUAUGACACGCAAAACGCGUGCUCCAUUGAAUGUAGUUUAUCAUG, at most -4.2. The value for GGAUCUUCUCGAUCUAACAAAAAAGACAAAUCUGCCACAAAGCUUGAGCGCAUCUUCGGAUGCAGAGGCGGCAGCAUUCGGUGGCGCGAUAGUGCCAACGUUCUCAACUAUGGCACACAAAACGCGUGCUCCGUUGAAUGGAGUUUAUCAUG was at most -4.2; that for GGAUCUUCUCGAUCUAACAAAAAAGACAAAUCUGCCACAAAGCUUGAGCGCAUCUUCCGAUGCAGAGGCGGCAGCCUUCGGUGGCGCGAUAGCGCCAACGUUCUCCACAAUGAAACGCAAAACGCGUGCUCCGUUGAAUGGAGUUUAUCAUG was at most -4.2. For the variant GGAUCUUCUCGAUCUAACAAAAAAGACAAAUCUGCCACAAAGCUUGAGCGCAUCUUCGGAUGCAGAGGCGGCAGCCUUCGGUCGCGCGAUAGCGGCAACGAUCUCAACUAUGACACGCAAAACGCGUGCUCCGUUGAAUGGAGUUUAUCAUG, the “polymerase ribozyme fitness (log ratio)” value was at most -4.2. With GGAUCUUCUCGAUCUAACAAAAAAGACAAAUCUGCCACAAAGCUUGAGCGCAUCUUCGGAUGCAGAGGCGGCAGCCUUCGGUGGCGCGAUAGCGCAAACGUGCUCAACUAUGACACGCAAAACGCGUGCUCCGUUGAAUGUAGUUUAUCAUG, the “polymerase ribozyme fitness (log ratio)” value turned out to be 0.794. The value for GGAUCUUCUCGAUCUAACAAAAAAGACAAAUCUGCCACAAAGCUUGAGCGCAUCUUCGGAUGCAGAGGCGGCAGCCUUCGGUGGCGCGAUAGCGCCAACGUUAUCAACUAUGACACGCAAAACGCGUGCUCCGUUGAAAGGAGUUUAUCAUG was at most -4.2; that for GGAUCUUCUCGAUCUAACAAAAAAGACAAAUCUGCCACAAAGCUUGAGCCCAUCUUCGGAUGCAGAGGCGACAGCCUUCGGUGGCGCGACAGGGCCAACGUUCUCAACUAUGACACUCAAAAGGCGUGCUCCGUUGAAUGGAGUUUAUCAUG was at most -4.2.

Regarding GGAUCUUCUCGAUCUAACAAAAAAGACAAAUCUGCCACAAAGCUUGAGCGCAUCUUCGGAAGCAGAGGCGGCAGCCUUCGGUGGCACGUUAGCGCCAACGUUCUCAACUAUGACACGCAAAACGCGUGCUCCGUUGAUUGGAGUUUAUCAUG, the “polymerase ribozyme fitness (log ratio)” value is at most -4.2. The value for GGAUCUUCUCGAUCUAACAAAAAAGACAAAUCUGCCACAAAGCUUGAGCCCAUCUUCGGAUGCAGAGGCGGCAGCCUUCGGUGGAGCGAUAGCGCCAACGUUUUCGACUAUGACACUCAAAUCGCGUGCUUCGUUGAAGGGAGUUUAUCAUG was at most -4.2.
